Measured values from patent US20180055923A1 (WASHINGTON UNIVERSITY, published 2018).

Biological target: T1, human fibrinogen free from plasminogen and von Willebrand factor (Enzyme Research Laboratory) (human, UniProt P02671 20-629; P02675 31-491; P02679 27-437)
T1 construct: It was bought as purified protein and coated on plates; also called Fg; immobilized human fibrinogen
T1 sequence 1: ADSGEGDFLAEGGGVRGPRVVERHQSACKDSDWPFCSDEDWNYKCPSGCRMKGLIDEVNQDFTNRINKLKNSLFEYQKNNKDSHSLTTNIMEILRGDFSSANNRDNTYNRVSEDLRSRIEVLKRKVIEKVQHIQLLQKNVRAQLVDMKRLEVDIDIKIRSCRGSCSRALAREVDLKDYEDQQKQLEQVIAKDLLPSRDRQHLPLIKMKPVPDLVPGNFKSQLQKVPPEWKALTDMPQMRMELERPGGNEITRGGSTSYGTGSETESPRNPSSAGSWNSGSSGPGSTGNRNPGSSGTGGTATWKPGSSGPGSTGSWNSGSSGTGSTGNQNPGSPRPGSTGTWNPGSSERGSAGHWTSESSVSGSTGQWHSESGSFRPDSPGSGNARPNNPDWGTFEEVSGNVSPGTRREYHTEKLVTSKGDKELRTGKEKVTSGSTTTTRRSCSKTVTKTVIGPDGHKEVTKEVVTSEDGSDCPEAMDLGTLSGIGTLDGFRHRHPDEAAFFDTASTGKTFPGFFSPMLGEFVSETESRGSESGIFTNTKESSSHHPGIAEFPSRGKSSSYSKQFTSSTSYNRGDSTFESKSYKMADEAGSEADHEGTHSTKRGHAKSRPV
T1 sequence 2: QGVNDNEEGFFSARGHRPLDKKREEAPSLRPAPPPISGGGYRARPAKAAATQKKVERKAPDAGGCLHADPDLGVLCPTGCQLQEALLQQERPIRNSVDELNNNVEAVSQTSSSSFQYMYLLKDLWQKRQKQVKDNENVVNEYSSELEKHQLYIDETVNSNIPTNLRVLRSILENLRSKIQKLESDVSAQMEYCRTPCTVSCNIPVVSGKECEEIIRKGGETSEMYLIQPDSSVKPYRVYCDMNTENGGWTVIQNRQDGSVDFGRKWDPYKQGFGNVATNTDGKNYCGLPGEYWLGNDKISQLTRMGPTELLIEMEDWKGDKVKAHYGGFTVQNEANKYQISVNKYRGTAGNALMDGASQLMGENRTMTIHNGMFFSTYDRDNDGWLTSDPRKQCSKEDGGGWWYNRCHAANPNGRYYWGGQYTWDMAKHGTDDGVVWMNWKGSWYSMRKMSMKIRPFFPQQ
T1 sequence 3: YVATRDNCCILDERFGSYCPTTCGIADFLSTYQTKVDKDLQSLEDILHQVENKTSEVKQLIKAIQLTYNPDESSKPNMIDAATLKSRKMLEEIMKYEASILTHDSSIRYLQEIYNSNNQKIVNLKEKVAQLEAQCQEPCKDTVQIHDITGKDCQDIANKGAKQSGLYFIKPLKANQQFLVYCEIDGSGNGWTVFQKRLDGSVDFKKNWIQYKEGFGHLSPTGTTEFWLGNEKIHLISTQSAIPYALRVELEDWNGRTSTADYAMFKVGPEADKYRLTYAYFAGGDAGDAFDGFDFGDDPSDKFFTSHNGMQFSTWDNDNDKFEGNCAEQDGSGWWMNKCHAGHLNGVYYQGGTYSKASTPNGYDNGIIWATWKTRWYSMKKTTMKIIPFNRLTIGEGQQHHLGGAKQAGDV
Experiment: ELISA, purified protein on immobilized human fibrinogen, detected with mouse anti-EbpA^Full

B1: 6xHis-EbpA^NTD (N-terminal domain of EbpA, residues 115 to 577) (other)
chain: PEKITVPENTKETNKNDSAPEKTEQPTATEEVTNPFAEARMAPATLRANLALPLIAPQYTTDNSGTYPTANWQPTGNQNVLNHQGNKDGSAQWDGQTSWNGDPTNRTNSYIEYGGTGDQADYAIRKYARETTTPGLFDVYLNVRGNVQKEITPLDLVLVVDWSGSMNENNRIGEVQKGVNRFVDTLADSGITNNINMGYVGYSSDGYNNNAIQMGPFDTVKNPIKNITPSSTRGGTFTQKALRDAGDMLATPNGHKKVIVLLTDGVPTFSYKVSRVQTEADGRFYGTQFTNRQDQPGSTSYISGSYNAPDQNNINKRINSTFIATIGEAMALKQRGIEIHGLGIQLQSDPRANLSKQQVEDKMREMVSADENGDLYYESADYAPDISDYLAKKAVQISGTVVNGKVVDPIAEPFKYEPNTLSMKSVGPVQVQTLPEVSLTGATINSNEIYLGKGQEIQIHYQV
notes: not shown: N-terminal 6xHis tag from vector pQE-30Xa
binding result: binds

B2: 6xHis-EbpA^CTD (C-terminal domain of EbpA, residues 594 to 1077) (other)
chain: MNGRTTQPLATAPEKVDFGVPSGKAPGVKLNVKKIWEEYDQDPTSRPDNVIYEISRKQVTDTANWQTGYIKLSKPENDTSNSWERKNVTQLSKTADESYQEVLGLPQYNNQGQAFNYQTTRELAVPGYSQEKIDDTTWKNTKQFKPLDLKVIKNSSSGEKNLVGAVFELSGKNVQTTLVDNKDGSYSLPKDVRLQKGERYTLTEVKAPAGHELGKKTTWQIEVSEQGKVSIDGQEVTTTNQVIPLEIENKFSSLPIRIRKYTMQNGKQVNLAEATFALQRKNAQGSYQTVATQKTDTTGLSYFKISEPGEYRMVEQSGPLGYDTLAGNYEFTVDKYGKIHYAGKNIEENAPEWTLTHQNNLKPFDLTVHKKADNQTPLKGAKFRLTGPDTDIELPKDGKETDTFVFENLKPGKYVLTETFTPEGYQGLKEPIELIIREDGSVTIDGEKVADVLISGEKNNQITLDVTNQAKVPLPETGGIGRLW
notes: Plasmid pSJH-541; not shown: N-terminal 6xHis tag from vector pQE-30Xa
binding result: no binding
